Here are results for one variant from IntAct's records for PubMed 17196169.

B1: Programmed cell death protein 6 (Homo sapiens), O75340 (parent)
chain: MAAYSYRPGPGAGPGPAAGAALPDQSFLWNVFQRVDKDRSGVISDTELQQALSNGTWTPFNPVTVRSIISMFDRENKAGVNFSEFTGVWKYITDWQNVFRTYDRDNSGMIDKNELKQALSGFGYRLSDQFHDILIRKFDRQGRGQIAFDDFIQGCIVLQRLTDIFRRYDTDQDGWIQVSYEQYLSMVFSIV
partner: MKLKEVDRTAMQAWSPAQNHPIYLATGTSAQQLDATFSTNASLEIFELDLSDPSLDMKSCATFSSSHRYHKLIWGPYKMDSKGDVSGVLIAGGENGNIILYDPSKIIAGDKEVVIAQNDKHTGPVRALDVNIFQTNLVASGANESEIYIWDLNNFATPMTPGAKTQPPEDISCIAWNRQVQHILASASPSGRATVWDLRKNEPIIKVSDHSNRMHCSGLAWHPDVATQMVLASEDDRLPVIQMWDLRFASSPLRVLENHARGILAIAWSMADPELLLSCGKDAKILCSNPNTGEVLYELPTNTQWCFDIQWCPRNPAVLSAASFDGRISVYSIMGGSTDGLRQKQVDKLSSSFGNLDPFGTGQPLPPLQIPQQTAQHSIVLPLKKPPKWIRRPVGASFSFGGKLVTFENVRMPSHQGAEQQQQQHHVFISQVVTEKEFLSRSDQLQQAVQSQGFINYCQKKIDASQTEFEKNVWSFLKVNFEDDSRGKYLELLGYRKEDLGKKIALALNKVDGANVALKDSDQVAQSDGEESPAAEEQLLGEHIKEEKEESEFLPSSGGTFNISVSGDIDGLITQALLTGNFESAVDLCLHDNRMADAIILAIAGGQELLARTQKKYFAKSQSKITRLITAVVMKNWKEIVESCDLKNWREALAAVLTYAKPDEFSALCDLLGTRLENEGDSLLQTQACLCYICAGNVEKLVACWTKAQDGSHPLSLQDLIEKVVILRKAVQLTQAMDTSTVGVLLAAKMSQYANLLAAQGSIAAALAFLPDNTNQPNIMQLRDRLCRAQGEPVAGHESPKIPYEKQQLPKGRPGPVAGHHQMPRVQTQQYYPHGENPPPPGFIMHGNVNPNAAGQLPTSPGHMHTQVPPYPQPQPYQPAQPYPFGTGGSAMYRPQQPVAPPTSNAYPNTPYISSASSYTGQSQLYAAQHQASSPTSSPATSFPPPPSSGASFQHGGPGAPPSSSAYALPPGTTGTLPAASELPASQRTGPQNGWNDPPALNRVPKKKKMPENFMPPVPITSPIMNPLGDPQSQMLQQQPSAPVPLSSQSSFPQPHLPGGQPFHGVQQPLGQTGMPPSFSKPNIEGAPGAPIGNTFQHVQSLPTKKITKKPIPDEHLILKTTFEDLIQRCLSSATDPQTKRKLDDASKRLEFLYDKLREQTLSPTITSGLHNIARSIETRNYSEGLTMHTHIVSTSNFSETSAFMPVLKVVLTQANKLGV

In the experiment the parent is B1. The conditions noted are these: with sc31a_human SEC31A.
As for E47A;E114A, the “effect of a mutation on the interaction” value is recorded as “decreasing interaction”.
